Reference: publication PMC8479507 (Cell Reports, 2021)

Target: SARS-CoV-2 receptor-binding domain (RBD) (SARS-CoV-2 (Wuhan-Hu-1), UniProt P0DTC2)
Test: cell-based or functional assay

B1: monoclonal antibody 910-30, IgG (antibody, V domains shown)
VH: EVQLVESGGGLVQPGGSLRLSCAASGFTVSSNYMSWVRQAPGKGLEWVSLIYSGGSTYYADSVKGRFTISRHNSKNTLYLQMNSLRAEDTAVYYCARIYGDYAWGQGTLVTVSS
VL: not shown
- IC50 of neutralisation of authentic SARS-CoV-2; blocks RBD binding to ACE2: 0.142 mg/L
